Assay results: US20260274910A1, “SINGLE FUSION PROTEIN AND PHARMACEUTICAL COMPOSITION” (MEDI&GENE INC., priority 2023, published 2026)

Assays:
[1] = mouse, in vivo, 2.5 mg/kg
Protocol: For evaluation, ten-week-old C57BL/6 mice were used, and the mice were reared in a specialized animal facility which provided a normal diet and a 12/12 hour night/day cycle and then used for experimentation.
The synthetic peptide (SEQ ID NO: 8) and fusion protein (SEQ ID NO: 13) were each injected into the mice at a concentration of 2.5 mg/kg, and blood was collected at 0, 0.5, 2, 4, 24 hours after injection. The collected blood was centrifuged and the obtained plasma was analyzed. At this time, in order to perform effective quantification of the substances, each substance was conjugated with Dylight 680 Near-Infrared dye (NIR) in advance prior to injection, and the finally collected blood samples were examined by observing fluorescent signals with a SpectraMax i3 microplate reader device.

3T3-L1 adipocytes = test: Lipid droplet analysis (BODIPY 493/503, confocal) in 3T3-L1 adipocytes; type: cell-based, mouse; details: differentiated 3T3-L1 adipocytes, 100 nM, 30 hours
Protocol: To observe the functionality of the fusion proteins related to lipid metabolism, the 3T3-L1 mouse pre-adipocyte cell line was used as the cell line itself (undifferentiated) or by differentiating into adipocytes. Differentiation into the adipocytes was performed by inducing primary differentiation for the 3T3-L1 cells in a medium containing DMEM, 10% FBS, 10 μg/ml insulin, 0.5 mM IBMX (3-Isobutyl-1-methylxanthine), and 1 μM dexamethasone for 2 days, and inducing secondary differentiation with a medium containing DMEM, 10% FBS, and 10 μg/ml insulin for the remaining 4 days. The adipocytes in which differentiation was finally completed were treated with the test substances at a concentration of 100 nM for 30 hours (Control: PBS) and then used for each test.
In addition, lipid droplets of adipocytes were stained with BODIPY 493/503 dye sample, and then confocal image scanning was performed to analyze the size and diameter of the lipid droplets.

plasma proteins = test: Plasma protein binding test (PPB); type: in vitro ADME, mice; details: mouse plasma, 5 uM, 37° C., 4 hours, 100 kD filter, western blot
Protocol: Such an increase in half-life was further confirmed by measuring plasma protein binding rates (Plasma protein binding test, PPB). […] Each of the plasma of the mice and the fusion protein (SEQ ID NO: 13), and or His tag-wild-type substance (1-81) (SEQ ID NO: 5) was incubated at a concentration of 5 uM at 37° C. for 4 hours. After that, they were centrifuged with a 100 kD filter to obtain fractions of the substance bound to the plasma proteins or fractions of the unbound substance. Each of the obtained fractions was evaluated by western blot.

[2] = tested on: follicular cells (dermal papilla cells); test: Follicular cell proliferation by MTT assay; type: cell-based; details: 100 nM, 24 hours; compared with Control (PBS)
Protocol: Whether the test substances of the present invention has effects on preventing hair loss or promoting hair growth was evaluated as follows. Specifically, it was observed whether they have efficacy of improving loss of follicular cells in scalp tissue which is a cause of hair loss, or hair growth due to an increase in hair follicles, by using dermal papilla cells and evaluating cell proliferation of follicular cells.
The follicular cells were treated with each test substance 100 nM (control: PBS) for 24 hours, and the degree of cell proliferation was evaluated by MTT assay.

[3] = tested on: Akt and S6 (phosphorylation, p-Akt/p-S6) in C2C12 mouse skeletal muscle cell line; test: Akt and S6 phosphorylation (western blot) in C2C12 muscle cells; type: cell-based; details: 2 hours
Protocol: In order to evaluate functions related to muscle loss diseases, each test substance was treated to the undifferentiated C2C12 mouse skeletal muscle cell line (mouse myoblast cell line) or the cell line in which differentiation into myotubes was completed. Differentiation of the cell line into myotubes was performed by conducting addition of 2% horse serum to culture medium and replacement with new medium every two days for a total of 4 days.
To the undifferentiated or differentiated cell lines, the test substances, fusion proteins (SEQ ID NOs: 1, 2, 3, 7, 14 and 15) were treated at a concentration of 100 nM (Control: PBS treated group) for 2 hours. Thereafter, the cells were immediately washed once and the cells were lysed with RIPA buffer (Radioimmunoprecipitation assay buffer). The activity of Akt and S6 (phosphorylation, p-Akt/p-S6) was observed by western blot. Akt phosphorylation is a well-known marker of activation of cell signaling pathways, and is an indicator of beneficial effects on muscle cells such as promotion of glucose metabolism and promotion of muscle biosynthesis. Similarly, S6 phosphorylation is a well-known marker of mTOR activity, and the activity of mTOR is an indicator showing muscle biosynthesis and various cell signaling pathways.

[4] = C2C12 differentiated into myotubes, 100 nM, control PBS
[5] = Table 6, C2C12, 100 nM, differentiation state not given
[6] = undifferentiated C2C12, 100 nM, control PBS

B1: Human ATPIF1 (peptide, listed as Homo sapiens)
chain: GSDQSENVDRGAGSIREAGGAFGKREQAEEERYFRAQSREQLAALKKHHEEEIVHHKKEIERLQKEIERHKQKIKMLKHDD
For B1, the Half-life [1] was 1.6 h, the Lipid droplet size (3T3-L1 adipocytes) was “reduced at a significant level” and the “Maximum lipid droplet diameter per cell” value (3T3-L1 adipocytes) was “reduced at a significant level”. For the same molecule, the “Total lipid droplet area” value (3T3-L1 adipocytes) was “reduced at a significant level”.

B2: His tag Human ATPIF1 (protein)
chain: MGSHHHHHHSSGLVPRGSHMGSDQSENVDRGAGSIREAGGAFGKREQAEEERYFRAQSREQLAALKKHHEEEIVHHKKEIERLQKEIERHKQKIKMLKHDD
notes: Recombinant protein: His tag-wild-type substance (1-81), control group
In the case of B2, the “Binding rate with the plasma proteins” value (plasma proteins) is reported as 5%, the “Cell viability (MTT, cell proliferation)” value [2] is reported as “significantly increased” and the “Activity (% increase compared to control) Differentiated Akt” value [3, 4] is reported as 248%. The “Activity (% increase compared to control) Differentiated S6” value [3, 4] was 262%, the “Activity (% increase compared to control) Akt” value [3, 5] was 254% and the “Activity (% increase compared to control) S6” value [3, 5] was 217%. For the same molecule, the “Activity (% increase compared to control) Undifferentiated Akt” value [3, 6] was 165% and the “Activity (% increase compared to control) Undifferentiated S6” value [3, 6] was 207%.
